Source: US20240400698A1, “ANTI-CHEMOKIN LIKE RECEPTOR 1 ANTIBODIES AND THEIR THERAPEUTIC APPLICATIONS” (OSE IMMUNOTHERAPEUTICS, priority 2018, published 2024)

Tests used:
[1] = test system: C57BI/6 male mice, colitis induced by TNBS; assay: Acute inflammatory colitis model induced by TNBS; format: in vivo; details: FIG. 3, 2G1 10 μg, RvE1 1 μg per mouse i.p.
Description: FIG. 3. […] Mice received 200 μL of the haptenating agent TNBS at 5% in 50% ethanol on day 0 and then were injected with isotype control hIgG1 (10 μg per mouse) (x), RvE1 (1 μg per mouse) daily (•), or 2G1 antibody (10 μg per mouse) three times ( ) for 5 days, or non-treated (wild type animals) (▾). Mice were sacrificed colon length was measured in each condition.
Colitis was induced in 8-10 weeks-old-C57BI/6 male mice by intrarectal injection of 200 μL of the haptenating agent TNBS at 5% in 50% ethanol on day 0. Treatments were injected intra-peritoneally; RvE1 (1 μg per mouse) daily for three days, or 2G1 antibody (10 μg per mouse) twice for 3 days. Colitis follow-up consisting of body weight and stool score (0: normal stool; 4: blood in stool) parameters were performed daily (data not represented). When mice are euthanized, colon length representing the pathology severity was measured.

[2] = test system: Rag1 knock-out mice, CD45Rb high CD4 T cell transfer colitis; assay: CD45Rb high T-cell transfer chronic colitis mouse model; format: in vivo; details: FIG. 21; 1 mg/kg three times a week for 3 weeks from day 32; control mice start to lose weight
Description: Weight variation of treated animals was followed up to sixty days. Animals were treated with isotype control hIgG1 (x) or anti-CMKLR1 antibody (=).
Method: CD45Rb^high CD4 T cells were isolated from the spleen of naive mice and sorted on an ARIA FACS after a negative selection of the CD4 T cells by magnetic sorting, then injected intraperitoneally at 0.5·10^6 cells in 100 μL of PBS into 6-weeks old female Rag1 knock-out mice. Anti-CMKLR1 antibody (2G1) or an isotype control were administered from day 32 after the CD45Rb^high CD4 T cell transfer for 3 weeks three times a week at 1 mg/kg. The follow-up of weight was evaluated three times a week and the weight variation was determined over the initial weight. * p<0.05, ** p<0.01.

[3] = test system: CT26 cells; assay: CT26 colon carcinoma model; format: in vivo, mice; details: FIG. 9A-C, 20 μg/injection i.p. for 3 weeks
Description: FIG. 9. […] Two mice models were studied, and animals received isotype control antibody (3G8) (x) or anti-CMKLR1 (2G1) ( ) at 20 μg/injection intraperitoneally for 3 weeks. A-C. Results in the CT26 colon carcinoma model comparing single treatment with p84 (A) and 2G1 (B) with combined therapy with both antibodies (C). D: Results in the MC38 colon carcinoma model.
8-week old C57bl/6J male mice were anesthetized with 3% of isoflurane. Mice were shaved on the flank and MC38 cells (0.5·10^6 cells/mouse) cell lines were injected subcutaneously with an insulinic syringe (30 Gauges) in 50 μL of PBS. Another model was used, in which 8-week old Balb/c male mice were anesthetized with 3% of isoflurane. Mice were shaved on the flank and CT26 cells (1·10^6 cells/mouse) were injected subcutaneously with an insulinic syringe (30 Gauges) in 50 μL of PBS.
The agonistic anti-CMKLR1 antibody (2G1) or an anti-SIRPa antibody (p84-anti-mouse SIRPa from Merck Millipore) (SIRPa is a new checkpoint inhibitor) were injected once a week (20 μg/injection) intraperitoneally for 3 weeks starting at d4 after tumor inoculation alone or combined.

[4] = test system: C57BI/6 male mice, colitis induced by DSS; assay: Acute inflammatory colitis model induced by DSS; format: in vivo
Description: FIG. 2. […] Mice were injected after 6 days of DSS induction with isotype control hIgG1 (10 μg per mouse) (x), RvE1 (1 μg per mouse) daily (•), or 2G1 antibody (10 μg per mouse) three times ( ) for 5 days. Wild type mice, not treated, are represented by an ▾. A. Animal weight loss. B. Animal stool score C. Colon length. D. Resolution index.
Colitis was induced in 8-10 weeks-old-C57BI/6 male mice by adding 2% (wt/vol) of DSS to the sterile drinking ad libitum water for 6 days. Treatments were injected intra-peritoneally: Isotype control hIgG1 (10 μg per mouse), RvE1 (1 μg per mouse) daily, or 2G1 antibody (10 μg per mouse) three times for 5 days. Colitis follow-up consisting of body weight and stool score (0: normal stool; 4: blood in stool) parameters were performed daily. When mice were euthanized, colon length representing the pathology severity was measured. Resolution index was determined in the different conditions as described in Bannenberg et al., 2005.

[5] = test system: mice M1 or M2 macrophages; assay: Cytokine secretion by mice M1 or M2 macrophages (ELISA), FIG. 15; format: cell-based; details: ELISA
Description: FIG. 15. Study of the inflammatory cytokine secretion by human macrophages during CMKLR1 activation. After differentiation of human macrophages M1 or M2, cells were incubated in presence of medium, isotype control, anti-CMKLR1 antibodies (H6 and BZ194), C15 peptides, 2G1 anti-CMKLR1 antibody or RvE1. Secretion of IL10, CCL17 and IL12p40 were assessed by ELISA. Cytokines secretion is measured in the supernatant by using an ELISA kit from BD. Supernatant were diluted at 1/10 for IL10 cytokines, 1/50 for CCL17 cytokines and 1/100 for IL12p40 cytokines. A. IL10 cytokine secretion by M2 cells. B. CCL17 cytokine secretion by M2 cells. C. represents IL 12 cytokine secretion by M1 cells.
Bone marrow cells were harvested and cultured in the RPMI medium supplemented with 10% FBS, glutamine and antibiotics containing macrophages colony-stimulating factor (M-CSF) at 100 ng/ml for 5 days inducing the macrophages differentiation. The macrophages were harvested and cultured for 2 days with either IFNg (20 ng/ml) and LPS (100 ng/ml) inducing the M1 polarization or with IL-4 (20 ng/ml) inducing the M2 polarization. Treatments were added during macrophage polarization at 2 μg/ml.
After differentiation of mice M1 or M2 as explain above, cells were incubated in presence of medium, isotype control, anti-CMKLR1 antibodies: clones H6 and BZ194, C15 peptides, 2G1 the anti-CMKLR1 antibody of interest or RvE1 were used. Then the secretion of IL10, CCL17 and IL12p40 was assessed by ELISA. Cytokines secretion was measured in the supernatant using an ELISA kit from BD. Supernatants were diluted at 1/10 for IL10 cytokines, 1/50 for CCL17 cytokines and 1/100 for IL12p40 cytokines.
Cytokines secretion was detected by ELISA according to the BD manufacturer instructions. Briefly, supernatants were diluted in the appropriate buffer and incubated for 2 hours after overnight coating with capture antibody and saturation. […] TMB supplied by BD Bioscience was used as substrate and colorimetric reaction was read with TECAN.

B1: 2G1: chimeric anti-CMKLR1 antibody, murine variable regions (SEQ ID No: 10 and 17), human IgG1 constant regions; VH-CDR3 variant LI (antibody, V domains shown)
VH: METDTLLLWVLLLWVPGSTGDEVQLVASGGGLVQPGGSLKLSCAASGFTFSSYGMSWVRQTPDRRLELVATINRYGGSTYYPDSVKGRFTISRDNAKNTLYLQMSSLKSEDTAMYYCPRLIYYGNEGDSWGQGTTLTVSS
VL: METDTLLLWVLLLWVPGSTGDQIVLTQSPAIMSASPGEKVTMTCSASSSVSFMHWYQQKSGTSPKRWIYDTTKLTSGVPARFSGSGSGTFYSLTISSMEAEDAATYYCQQWNSKPPLTFGPGTKLELKR
modifications: human IgG1 constant regions
notes: VH-CDR3 variant LI
Q: Which colon length [1] does the source give for B1 here?
A: the same as normal animal (wt)

Q: What about the weight variation [2] of the same molecule?
A: continue to gain weight

Q: What about the “tumor development / tumor growth” value [3] of the same molecule?
A: did not demonstrate a clinical effect on the tumor development

Q: What about the “overall state of the animals” value ([4]; 10 μg per mouse i.p. three times, vs control antibody or RvE1) of the same molecule?
A: better overall state

Q: And the weight loss ([4]; FIG. 2A, 10 μg per mouse i.p.)?
A: lost significantly less weight

Q: What about the score stool ([4]; FIG. 2B, 10 μg per mouse i.p.) of the same molecule?
A: significantly better

Q: And the “IL10 secretion by M2 type macrophages” value ([5]; FIG. 15A)?
A: induced

Q: And the “CCL17 secretion by M2 type macrophages” value ([5]; FIG. 15B)?
A: induced

Q: And the “pro-inflammatory cytokines (IL12) from M1 type macrophages” value ([5]; FIG. 15C)?
A: decreased
